Experimental data from the supplement of paper PMC7125110.
± gives the standard error. Fewer inactive variants are shown than the library holds.

B1: glmS ribozyme (parent)
chain: AUAAAAGCGCCAGAACUACAGAAAUGUAGUUGACGAGGAGGAGGUUUAUCGAAUUUUCGGCGGAUGCCUCCAAA

What was measured:
Conditions in all cases: with glucosamine-6-phosphate
glucosamine-6-phosphate [1] = variants of: B1; experiment: self-cleavage kobs at 160 uM GlcN6P; higher = faster cleavage; RNA array
Outline: (§1)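 Barcoded ribozyme variants, transcribed in situ by E. coli RNA polymerase on sequenced MiSeq chips, were followed via a hybridised Cy3 probe at 37 °C. Glucosamine-6-phosphate ranged from 40 μM to 10 mM in HEPES/KCl/Mg(OAc)2 buffer. kobs came from decay fits to per-tile medians, and kcat and KM from weighted Michaelis–Menten fits.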

glucosamine-6-phosphate [2] = variants of: B1; experiment: self-cleavage kobs at 640 uM GlcN6P; higher = faster cleavage; RNA array
Outline: as §1

glucosamine-6-phosphate [3] = variants of: B1; experiment: self-cleavage kobs at 10000 uM GlcN6P; higher = faster cleavage; RNA array
Outline: as §1

glucosamine-6-phosphate [4] = variants of: B1; experiment: self-cleavage kobs at 2500 uM GlcN6P; higher = faster cleavage; RNA array
Outline: as §1

| Variant | self-cleavage kobs at 160 uM GlcN6P (glucosamine-6-phosphate [1]) | self-cleavage kobs at 640 uM GlcN6P (glucosamine-6-phosphate [2]) | self-cleavage kobs at 10000 uM GlcN6P (glucosamine-6-phosphate [3]) | self-cleavage kobs at 2500 uM GlcN6P (glucosamine-6-phosphate [4]) |
| --- | --- | --- | --- | --- |
| G7C C50A | < 1e-05 s⁻¹ | < 1e-05 s⁻¹ | < 1e-05 s⁻¹ |  |
| A6G G40C C50G | < 1e-05 s⁻¹ |  |  | < 1e-05 s⁻¹ |
| G29C G51U |  | < 1e-05 s⁻¹ |  |  |
| C8U A39C C50G C61G | < 1e-05 s⁻¹ | < 1e-05 s⁻¹ |  | < 1e-05 s⁻¹ |
| G7C G9U A36G C68A | < 1e-05 s⁻¹ | < 1e-05 s⁻¹ |  | < 1e-05 s⁻¹ |
| A12C A64C C68A C71A | < 1e-05 s⁻¹ | < 1e-05 s⁻¹ |  | < 1e-05 s⁻¹ |
| U49G G63U | < 1e-05 s⁻¹ |  | < 1e-05 s⁻¹ | < 1e-05 s⁻¹ |
| C10A A33G A36U G37C C61G | < 1e-05 s⁻¹ | < 1e-05 s⁻¹ |  |  |
| G29U A39G U56A | 8.2e-05 ± 2.8e-05 s⁻¹ | 0.001 ± 0.00039 s⁻¹ |  | 0.00181 ± 0.00055 s⁻¹ |
| G35C G37U U56G |  | < 1e-05 s⁻¹ |  |  |
| C16U U55C | 0.00153 ± 0.00037 s⁻¹ |  |  | 0.00585 ± 0.0013 s⁻¹ |
| A12C A42C A52C C61U U69A | < 1e-05 s⁻¹ |  |  |  |
| G9A A36G A64C | < 1e-05 s⁻¹ |  |  | < 1e-05 s⁻¹ |
| G37A G51A C71A | < 1e-05 s⁻¹ |  |  | < 1e-05 s⁻¹ |
| C11G U47G | < 1e-05 s⁻¹ |  | < 1e-05 s⁻¹ | < 1e-05 s⁻¹ |
| A33U G35C U57C U65C | < 1e-05 s⁻¹ | < 1e-05 s⁻¹ |  | < 1e-05 s⁻¹ |
| G59U C67U U69A | 6.91e-05 ± 2.5e-05 s⁻¹ |  |  |  |
| A15C C16U U17A A18C C19A A36G G44U |  | < 1e-05 s⁻¹ |  |  |
| A6C G32U A64G C67U | < 1e-05 s⁻¹ | < 1e-05 s⁻¹ |  | < 1e-05 s⁻¹ |
| A14C G63C U69G | 7.07e-05 ± 2.1e-05 s⁻¹ | 6.64e-05 ± 2.3e-05 s⁻¹ |  | 4.71e-05 ± 1.8e-05 s⁻¹ |
| G29U G37C A39U | < 1e-05 s⁻¹ | < 1e-05 s⁻¹ |  |  |
| A12C G43U A53C | < 1e-05 s⁻¹ |  |  |  |
| G40A C67G | < 1e-05 s⁻¹ | < 1e-05 s⁻¹ |  |  |
| U47C U49A | < 1e-05 s⁻¹ |  | < 1e-05 s⁻¹ | < 1e-05 s⁻¹ |
| C16G G41C G59A | < 1e-05 s⁻¹ | < 1e-05 s⁻¹ |  | < 1e-05 s⁻¹ |
| A39U C61U G62U | < 1e-05 s⁻¹ | < 1e-05 s⁻¹ |  | < 1e-05 s⁻¹ |

| Variant | self-cleavage kobs at 160 uM GlcN6P (glucosamine-6-phosphate [1]) | self-cleavage kobs at 640 uM GlcN6P (glucosamine-6-phosphate [2]) | self-cleavage kobs at 10000 uM GlcN6P (glucosamine-6-phosphate [3]) | self-cleavage kobs at 2500 uM GlcN6P (glucosamine-6-phosphate [4]) |
| --- | --- | --- | --- | --- |
| C34G G63A | < 1e-05 s⁻¹ | < 1e-05 s⁻¹ | < 1e-05 s⁻¹ | < 1e-05 s⁻¹ |
| G44C C50U U54C | < 1e-05 s⁻¹ | < 1e-05 s⁻¹ |  |  |
| A6G U57A G60A C71G | < 1e-05 s⁻¹ | < 1e-05 s⁻¹ |  | < 1e-05 s⁻¹ |
| C8A A15U U47C U55A G63C U65G | < 1e-05 s⁻¹ |  |  |  |
| A14G G32A G38U | < 1e-05 s⁻¹ |  | < 1e-05 s⁻¹ | < 1e-05 s⁻¹ |
| G7C U31G | < 1e-05 s⁻¹ |  | < 1e-05 s⁻¹ | < 1e-05 s⁻¹ |
| C8G G40C U49C C61A | < 1e-05 s⁻¹ | < 1e-05 s⁻¹ |  | < 1e-05 s⁻¹ |
| A39U G41A G62U | < 1e-05 s⁻¹ |  |  | < 1e-05 s⁻¹ |
| C8A C11U G13A C71U |  | < 1e-05 s⁻¹ |  | < 1e-05 s⁻¹ |
| C11A G38C | < 1e-05 s⁻¹ |  |  | < 1e-05 s⁻¹ |
| A36C G41C C50U A64U C68A | < 1e-05 s⁻¹ | < 1e-05 s⁻¹ | < 1e-05 s⁻¹ | < 1e-05 s⁻¹ |
| C10A G40A C71A | < 1e-05 s⁻¹ | < 1e-05 s⁻¹ |  |  |
| A6U C11A A12U C34G C50U U55G | < 1e-05 s⁻¹ | < 1e-05 s⁻¹ |  | < 1e-05 s⁻¹ |
| C11G U46G C61A G66A | < 1e-05 s⁻¹ | < 1e-05 s⁻¹ |  | < 1e-05 s⁻¹ |
| A6U U65G C70U | < 1e-05 s⁻¹ | < 1e-05 s⁻¹ |  |  |
| A36G G41A G63U | < 1e-05 s⁻¹ | < 1e-05 s⁻¹ |  |  |
| U30C G37U C58A C68G |  | 7.09e-05 ± 2.2e-05 s⁻¹ |  | 0.000165 ± 3.6e-05 s⁻¹ |
| G37U C58U U69A |  | 5.7e-05 ± 1.7e-05 s⁻¹ |  |  |
| U31G G41U U47G G62U A64U C70G | < 1e-05 s⁻¹ | < 1e-05 s⁻¹ |  |  |
| G7C U56A | < 1e-05 s⁻¹ | < 1e-05 s⁻¹ | < 1e-05 s⁻¹ | < 1e-05 s⁻¹ |
| A6C A12C A36C G43A G51U C70G | < 1e-05 s⁻¹ | < 1e-05 s⁻¹ |  |  |
| A14C U56G U57A C71A |  | 8.95e-05 ± 2.3e-05 s⁻¹ |  | 5.04e-05 ± 2e-05 s⁻¹ |
| C50A C67U C68U | 6.13e-05 ± 3.1e-05 s⁻¹ | 6.87e-05 ± 2.8e-05 s⁻¹ |  | 0.000153 ± 6.2e-05 s⁻¹ |
| G9U C16A G59U G60U |  | < 1e-05 s⁻¹ |  | < 1e-05 s⁻¹ |
| A12G U47A C70U | 5.89e-05 ± 2.2e-05 s⁻¹ | 0.000192 ± 3e-05 s⁻¹ |  | 0.000394 ± 9.5e-05 s⁻¹ |
| A12U G32A A52U U54C C61G G63U C71A |  | < 1e-05 s⁻¹ |  | < 1e-05 s⁻¹ |
